These results are taken from doi:10.1101/2020.12.07.415216.

Usually stoichiometry N stands for the number of molecules, sites or subunits per partner or assembly.

This experiment deals with SARS-CoV-2 RBD homotrimer (RBD appended onto a cystine-stabilized, hyperglycosylated GCN4 trimerization tag) (SARS-CoV-2). Kind of experiment: SDS-PAGE under non-reducing conditions.

In turn, “SARS-CoV-2 RBD homotrimer (RBD appended onto a cystine-stabilized, hyperglycosylated GCN4 trimerization tag)” returned a stoichiometry N of 3.
